The values that follow come from paper PMC7532188.

In this assay the target is His-tagged TASOR(354–633), tandem SPOC-DomI construct (human) (UniProt Q9UK61). Description: SEC-MALS; complex co-expressed in E. coli and purified by Ni-affinity; Superdex 200 (10/300), 293 K, 20 mM HEPES pH 7.5, 0.5 M NaCl, 0.5 mM TCEP. On the technique in general: Size exclusion chromatography separates by hydrodynamic size, large species first.
UniProt Q9UK61, sequence (Q9UK61 354-633): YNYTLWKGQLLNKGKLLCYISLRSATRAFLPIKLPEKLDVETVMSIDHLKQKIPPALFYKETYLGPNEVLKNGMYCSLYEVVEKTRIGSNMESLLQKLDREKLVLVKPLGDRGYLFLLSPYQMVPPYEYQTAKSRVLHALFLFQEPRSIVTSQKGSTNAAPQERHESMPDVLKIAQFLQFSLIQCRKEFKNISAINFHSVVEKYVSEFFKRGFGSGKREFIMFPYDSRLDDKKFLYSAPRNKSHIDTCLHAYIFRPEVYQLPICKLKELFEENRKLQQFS

As usually defined, the stoichiometry N is a count of units in the complex or per binding partner. Substance “MPP8 C-terminus (residues 528–860) (from UniProt Q99549-1 528-860) (domain or fragment)” gave a stoichiometry N of 1.
